In this assay the target is Argonaute 1 (Ago1) (human (endogenous in PC-3, LNCaP, HCT116)) (UniProt Q9UL18). Nature of the assay: co-IP; nuclear extracts from PC-3 cells; IP with anti-Ago1 (Wako 2A7) or anti-Ago2 (Wako 4G8), immunoblot for RNAP II; 10 mM Tris-HCl pH 8.0, 150 mM NaCl, 1 mM EDTA, 1 mM DTT, 0.1% NP-40, overnight at 4°C, protein G dynabeads; also done after transfection with siControl, siDicer or siDrosha (50 nM, 72 hrs).

As for “RNA polymerase II (from UniProt P24928 1-1970) (complex)”, the decrease of the ratio of bound RNAP II to nuclear Ago1 after siDicer is 70%.

The record behind these values is publication PMC3784563.
